For experiment [1], the target named is human TIGIT expressed on cells (stably transfected Jurkat cells) (human) (UniProt Q495A1). Nature of the experiment: cell-based or functional assay.
Experiment [2] has as its target recombinant cynomolgus TIGIT (cynomolgus monkey). Nature of the experiment: ELISA on recombinant cyno-TIGIT. A general note: An ELISA detects its analyte on a solid surface through an enzyme-linked reagent.
Experiment [3] concerns the target recombinant human TIGIT extracellular domain (ECD) (human) (UniProt Q495A1). Description: ELISA on recombinant human TIGIT ECD.
The target in experiment [4] is human TIGIT expressed on cells (stably transfected Jurkat cells) (human) (UniProt Q495A1). Description: whole cell binding, flow cytometry, n=3 (FIG. 10A). (In general: In flow cytometry, cells or beads pass a laser one at a time.)
Experiment [5] has the same target. Nature of the experiment: flow cytometry on h-TIGIT transfected Jurkat cells (whole cell binding), Alexa Fluor 488; representative of three experiments.
The target of experiment [6] is recombinant mouse TIGIT (mouse) (UniProt P86176). Nature of the experiment: ELISA on recombinant mouse-TIGIT.
Sequence of recombinant mouse TIGIT (mouse) (P86176 29-148 limits assumed): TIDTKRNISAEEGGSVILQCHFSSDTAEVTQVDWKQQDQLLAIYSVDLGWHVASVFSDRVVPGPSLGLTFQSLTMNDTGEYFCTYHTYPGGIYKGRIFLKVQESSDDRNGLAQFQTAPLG

Sequence of human TIGIT expressed on cells (stably transfected Jurkat cells) (human) (Q495A1 22-244 limits assumed): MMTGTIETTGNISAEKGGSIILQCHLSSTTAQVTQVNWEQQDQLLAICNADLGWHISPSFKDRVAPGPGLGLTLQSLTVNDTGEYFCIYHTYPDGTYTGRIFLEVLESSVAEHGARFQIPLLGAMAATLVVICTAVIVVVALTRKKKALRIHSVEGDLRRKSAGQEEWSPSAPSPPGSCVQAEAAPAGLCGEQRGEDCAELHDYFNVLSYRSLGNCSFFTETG
Sequence of recombinant human TIGIT extracellular domain (ECD) (human) (Q495A1 22-138 limits assumed): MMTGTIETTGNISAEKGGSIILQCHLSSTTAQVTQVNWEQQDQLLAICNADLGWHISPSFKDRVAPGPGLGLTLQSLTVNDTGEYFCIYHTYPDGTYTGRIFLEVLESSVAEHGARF

The term EC50 (read off the curve) denotes the concentration giving half of the maximal effect. Usually EC50 stands for the midpoint of the concentration-response curve. Consider “Reference Ab 2 (same amino acid sequences as Tiragolumab) (antibody)”, for which the EC50, NFAT luciferase reporter assay (n=3) in experiment [1] was 0.72 nM. Also, the concentration for a half-maximal effect (EC50 (read off the curve)) in experiment [2] was 0.1 µg/mL; in experiment [3], 0.1 µg/mL; in experiment [5], 0.5 nM. Also, in experiment [4], the EC50 is 0.61 nM.
Regarding “anti-mouse TIGIT reference antibody (Biolegend #142101)”, the half-maximal effective concentration (EC50 (read off the curve)) in experiment [6] was 0.08 µg/mL.

Source of the values: patent publication US20230060388A1.
